The NTF2 design screens of Basanta et al. (2020)

Assay: protease stability score; higher = more stable; yeast display proteolysis, trypsin and chymotrypsin;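 note: log10 excess protease needed over predicted unfolded state with 0 meaning unfolded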

Sequence “DERAHSHVEDFFRNLKSGNEDEIRKLLDPNARIKVGDKVIHGRDDAKRYVQQQKREMRMEYDVKTVDAQGDKIQVQVNVTQQHNGRPVQYQQNLHMTVENGDIHTVNYQMDTRIERVQES” has a protease stability score of -0.231.
Work on “DDRHLHHRAREWAEQLKTNDEDELTKYVDPNARMRVGDKSVHGREKLQEQIHRDNERVDNVEIRSIRIENGTVNIRQVNDVNGRNDDFRVRMHIHNGQLKVNERHSP” yielded a protease stability score of -0.38.
In the case of “DEESQARKFIKQYHDVLETGDENEARRLADENVKVHVGEFHYRGSDQYAHAVKRLRNKVDHIHMTLTEISVSNGEVNVVLKVVLNYNGTNDSFKMTMRADRVNGTLVLVEVKNG”, the protease stability score was 0.389.
In the case of “DREAKNVFEKLTKAFETGNEDDMRKLLDEDVRFNIGDREVHGREQAVEDLKRKRTQMRVDIHHVDQQNEPNRLSVNVRMVVEHNGRPRDVQRHAVFDVHNGRIKSVKEKDRQ”, the protease stability score was -0.238.
For “EESAIERLKEAMKAFDHGDEDEWRQQFDKNARVQIGDKSVRGRDNMAKQIKKEKEKMRVEVKLESVHVHNGHVTADADYKEQKNGRPTSSRFQLHATFKGDKFKNMVWHKDS”, the protease stability score was -0.422.
In the case of “DEKEQEVLDRFMRALRTGNPDDADKNVDKDVNVRYGDRTIKGRESFHEEIRREHQEIRLDYRSVNNQVHNGQANVDVDAIWNVNGRPHRVKVHIRAQIHDGRIKHQRFRMDPEEKKRVDS”, the protease stability score was 0.054.
“DEHKVKEIEDIVRNNDFLKLANMADENARVRYGDKDFHGRERIKTQAQRFETKFDHAEIKSLDVRGNEISVDMVAVFNGRSVRFRMILVVKNGQIKMMEFRATSEKEETKLKEALS” showed a protease stability score of 1.25.
With “DEEDKKKLNHTVANVIQHGDEKQARRLMDPNVKVVIGDKTYNGRHKATEALKTLRDRADEIRVHDFRLEGDHINIIIELHINGQQTTLEIEVQFSGDKIKSVVFKTR” the protease stability score was 0.795.
“DEEEAKKVVETAVKYLQKGNVKQLKDIGHEGVDYQVADNKKKGPDAIEDVLRYLEKLGVRMEVKKQEVKGDTAHTVVDYQQGDTKVRATVEADIQGGRIDRVQVNVPETLKKILKHG” gave a protease stability score of -0.284.
With “DEETAEQVMRELNRLLKNGNPDEMMTMMDKDARIEVGDKTYHGRDDIRRQNKEDRRRVDRFEVTSVDVRGDKADIDARFQFNGKTKRYQLFAKFHNGRVKHLEIEDK” the protease stability score was 0.034.
With “DEDKNKKRAEEWQRILEDNDEERFSKLADKDVRFVIGDKEVHGSEQAETWIRTIKHRVDHIQLEDMKVNGNKIVIDLVMVHNGRKHRYKVVMEFHNGSVKYVQYNDS” the protease stability score was -0.06.
Sequence “DEELIKLAHELLRVFRRGDEDRFRQLVDPNARLQVGDTTLHGRENLAHHLRQVREHIRVDIKIDSMTAKGNKVDIKAKMNLEHNGRPDEKTVNFNVDVHNGKVHQMSFDVDS” has a protease stability score of 0.714.
In the case of “EEKAEELVERFITAIETNDPDEVVNNIDPNARLRVGDKHVSGRDHQRQQVEEQERHMRVKYQHVRIDVTGDHARVHVVQVDNHNGKPRRFKYSASFVVQGDKIKHASQTTTE”, the protease stability score was -0.163.
In the case of “DEEAEDLVKELWKAWKHNDPDTWVKQLPPDARISVGNKEVHGREQARHEFERQVERMQVRLKVDSVHNRGNKAHFHVTVDASVNGKPVTFTVEVVITFHNGKAKYIEMRMSEEQFDKFQG”, the protease stability score was 1.41.
In the case of “DEKKLEELLRKLFEAAQKNNVDEMRKFLAPDVQYKYGDKRYEGEKVADTAVKVMREVGAEVRVKEEEVKGGEAEATFQYHKGDKTVETTARVRYEGDKVKEVEVKLSEEVKKILEQG”, the protease stability score was 0.128.
Work on “DEENVKVMEHWNKATSNNDEDKHRELADENANFNIGDKRIHGREDFVRWVQELKNRLRIKVEVNSIQAQGDKVTVHYKLKQETNGEPDTRNVKATARIQNGRVRSLTVKDNQ” yielded a protease stability score of -0.116.
Work on “DEKELNDLKRVVRHGDEDRLEELMDEDVRMKVGNKEISGRSHAVKVMKKLNEKADHIEIKDIKISGEKVVVDLVFEVNGTKIKMRLIIVVRNGKIKHAQIEVTDEEVEDNLHKFLD” yielded a protease stability score of 0.972.
Work on “DEKKALEVIDRALKYVKNGNKEQVQQMGAPDVEVQNGDARNKGVEEMKKFAERVKKAGNQFEYKEKTTKGNKVKTVVQVTVNGQTIEYEVEVVAEGGKVKHWVVKMDETFKKVVDKS” yielded a protease stability score of 0.008.
Sequence “DERKIEHAQRILKHNDKHKLQNLFDKNARLEIGDTTFTGRERAQHWARRLYQQADHFEVKSVDNNPNDLTVELVVRVNGHDIHFQFRFRIKNGRITSFQVDYTDEDDERKMKDVDR” has a protease stability score of 0.369.
With “EEEAVRRYERMLRLVQNNNTEELNKQLDPNVEYDYGNHEIHGREQAVREMLKLQRKMRIEIQFDRVRHEGDKAVVKYTVLFDINGRPITNSATLYVKFKNGKIVYASAQMPEDFQRKVSS” the protease stability score was 0.876.
